Assays:
Assay in all cases: panning, LacI Gt library on immobilized ROS membranes
[1] = molecular target: LacI fusion clone 18 (Gt library) (E. coli, UniProt P03023 1-360)
Description: (§1) For screening of the library by “panning,” rhodopsin receptors prepared according to Example 5 were immobilized directly on Immulon 4 (Dynatech) microtiter wells (0.1-1 μg of protein per well) in cold 35 mM HEPES, pH 7.5, containing 0.1 mM EDTA, 50 mM KCl and 1 mM dithiothreitol (HEK/DTT). After shaking for one hour at 4° C., unbound membrane fragments were washed away with HEK/DTT. The wells were blocked with 100 μl 2% BSA in HEKL (35 mM HEPES; 0.1 mM EDTA; 50 mM KCl; 0.2 M α-lactose; pH 7.5, with 1 mM DTT). For rounds 1 and 2, BSA was used for blocking; in later rounds 1% nonfat dry milk was used. For the first round of panning, about 24 wells of a 96-well plate were used. In subsequent rounds, 8 wells with receptor and 8 wells without receptor were prepared.
(§2) The Gt library was thawed (2 mL aliquot) and mixed with 6 mL lysis buffer on ice. Lysis buffer contains 4.25 mL HE (25 mM HEPES: 0.1 mM EDTA; pH 7.5); 1 mL 50% glycerol; 750 μL 10 mg/mL protease-free BSA in HE; 10 μL 0.5 M DTT; and 6.25 μL 0.2 M PMSF. Freshly prepared lysozyme solution (150 μL 10 mg/mL lysozyme in cold HE) was added and the tube was gently inverted several times and incubated on ice for no more than two minutes. The extent of lysis is evidenced by an increase in viscosity that can be observed by noting the slow migration of bubbles to the top of the tube after mixing. Lysis was terminated by mixing in 2 mL 20% lactose and 250 μL 2M KCl. The tube was centrifuged immediately at 13,000×g for 15 minutes at 4° C. and the supernatant transferred to a new tube. A small aliquot of 0.1% (the PRE sample) was saved in a separate, labeled tube. […] Immediately thereafter, the crude bacterial lysate from the peptide library (200 μL) was added to each well and allowed to shake gently for one hour at 4° C. For round 2, this same procedure was followed. In round 3, the amount of lysate used was reduced to 100 μL. In subsequent rounds, the lysate was diluted 1:10 in HEKL/BSA.

[2] = molecular target: LacI fusion clone 23 (Gt library) (E. coli, UniProt P03023 1-360)
Description: as §1, §2

[3] = molecular target: LacI fusion clone 24 (Gt library) (E. coli, UniProt P03023 1-360)
Description: as §1, §2

[4] = molecular target: LacI fusion clone 3 (Gt library, light-activated rhodopsin screen) (E. coli, UniProt P03023 1-360)
Description: as §1, §2

[5] = molecular target: LacI fusion clone 4 (Gt library) (E. coli, UniProt P03023 1-360)
Description: as §1, §2

[6] = molecular target: LacI fusion clone 6 (Gt library) (E. coli, UniProt P03023 1-360)
Description: as §1, §2

[7] = molecular target: LacI fusion clone 11 (Gt library) (E. coli, UniProt P03023 1-360)
Description: as §1, §2

[8] = molecular target: T1, LacI fusion clone 13 (Gt library), … (E. coli, UniProt P03023 1-360)
T1 construct: also called L20
Description: as §1, §2

[9] = molecular target: LacI fusion clone 14 (Gt library) (E. coli, UniProt P03023 1-360)
Description: as §1, §2

[10] = molecular target: LacI fusion clone 15/28 (Gt library) (E. coli, UniProt P03023 1-360)
Description: as §1, §2

[11] = molecular target: LacI fusion clone 16 (Gt library) (E. coli, UniProt P03023 1-360)
Description: as §1, §2

[12] = molecular target: LacI fusion clone 17 (Gt library, light-activated rhodopsin screen) (E. coli, UniProt P03023 1-360)
Description: as §1, §2

[13] = molecular target: LacI fusion clone 19 (Gt library) (E. coli, UniProt P03023 1-360)
Description: as §1, §2

[14] = molecular target: LacI fusion clone 26 (Gt library, light-activated rhodopsin screen) (E. coli, UniProt P03023 1-360)
Description: as §1, §2

[15] = molecular target: LacI fusion clone 27 (Gt library) (E. coli, UniProt P03023 1-360)
Description: as §1, §2

[16] = molecular target: T2, LacI fusion clone 8 (Gt library) (E. coli, UniProt P03023 1-360)
T2 construct: also called Peptide 8; HAP
Description: as §1, §2

Measured: binding result

B1: light-activated bovine rhodopsin (metarhodopsin II) in rod outer segment membranes (receptor, UniProt P02699 1-348, looked up)
chain: MNGTEGPNFYVPFSNKTGVVRSPFEAPQYYLAEPWQFSMLAAYMFLLIMLGFPINFLTLYVTVQHKKLRTPLNYILLNLAVADLFMVFGGFTTTLYTSLHGYFVFGPTGCNLEGFFATLGGEIALWSLVVLAIERYVVVCKPMSNFRFGENHAIMGVAFTWVMALACAAPPLVGWSRYIPEGMQCSCGIDYYTPHEETNNESFVIYMFVVHFIIPLIVIFFCYGQLVFTVKEAAAQQQESATTQKAEKEVTRMVIIMVIAFLICWLPYAGVAFYIFTHQGSDFGPIFMTIPAFFAKTSAVYNPVIYIMMNKQFRNCMVTTLCCGKNPLGDDEASTTVSKTETSQVAPA
modifications: retinylidene chromophore on Lys-296 (all-trans after light)
notes: whole, on cells; also called MII
binds: [1] | [2] | [3] | [4] | [5] | [6] | [7] | [8] | [9] | [10] | [11] | [12] | [13] | [14] | [15] | [16]
